According to patent US20160222130A1 (Astellas, published 2016):

Columns and labels:
Test in all cases: SPR (Biacore T200); Tie2-Fc captured on anti-human IgG (Fc), Fab at 50 nM; mean of 3
[1] = target: T1, Human Tie2 (1-452)r3-Fc (human, UniProt Q02763 23-452)
T1 construct: range 1-452
Procedure: (§1) SPR analysis was carried out in order to evaluate the binding activity of the human Tie2 (1-452)-Fc chimera protein and 23 mutant proteins thereof to the fully human 2-16A2-Fab.
(§2) For SPR analysis, Biacore T200 (GE Healthcare) was used. An anti-human IgG (Fc) antibody (Human Antibody Capture Kit, GE Healthcare) was fixed onto a CM5 sensor chip. The human Tie2 (1-452)-Fc chimeric protein and 23 mutant proteins thereof, diluted with HBS-EP (GE Healthcare) at 5 μg/mL, were each allowed for immobilization, and the capture-amount was measured. Thereafter, the fully human 2-16A2-Fab diluted with HBS-EP to 50 nM, the binding amount thereof to the human Tie2 (1-452)-Fc chimeric protein and 23 mutant proteins thereof were measured. Further, by dividing the binding amount with the capture-amount, the binding amount of the antibody in the unit immobilized antigen (hereinafter referred to as a binding ratio) was calculated. The arithmetic mean of three experiments and the relative value of the binding ratio of each mutant proteins when the binding ratio of the human Tie2 (1-452)-Fc chimeric protein was taken as 100% are shown in Table 7.

[2] = target: T2, Human Tie2 (1-452)r4-Fc (human, UniProt Q02763 23-452)
T2 construct: range 1-452
Procedure: as §1, §2

[3] = target: T3, Human Tie2 (1-452)r5-Fc (human, UniProt Q02763 23-452)
T3 construct: range 1-452
T3 sequence (Q02763 other isoform, or with tags, fused parts or gaps limits assumed, form in doubt): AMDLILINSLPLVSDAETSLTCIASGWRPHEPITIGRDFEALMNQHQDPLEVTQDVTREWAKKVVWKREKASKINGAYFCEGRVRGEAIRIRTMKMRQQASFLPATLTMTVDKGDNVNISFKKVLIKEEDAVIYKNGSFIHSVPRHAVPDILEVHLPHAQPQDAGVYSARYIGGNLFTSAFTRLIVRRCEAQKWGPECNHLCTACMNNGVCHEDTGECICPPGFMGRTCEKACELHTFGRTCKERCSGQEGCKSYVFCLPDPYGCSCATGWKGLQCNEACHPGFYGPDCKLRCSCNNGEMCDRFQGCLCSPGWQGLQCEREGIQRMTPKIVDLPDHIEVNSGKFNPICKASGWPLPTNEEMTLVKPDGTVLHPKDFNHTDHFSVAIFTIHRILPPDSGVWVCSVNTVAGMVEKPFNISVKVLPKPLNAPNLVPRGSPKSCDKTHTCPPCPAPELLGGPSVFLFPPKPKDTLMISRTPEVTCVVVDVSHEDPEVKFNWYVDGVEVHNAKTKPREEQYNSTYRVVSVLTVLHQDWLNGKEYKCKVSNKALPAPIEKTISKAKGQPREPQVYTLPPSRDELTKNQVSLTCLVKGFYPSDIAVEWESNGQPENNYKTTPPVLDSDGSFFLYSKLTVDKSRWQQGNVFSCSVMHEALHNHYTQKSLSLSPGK
Procedure: as §1, §2

[4] = target: T4, Human Tie2 (1-452)r7-Fc (human, UniProt Q02763 23-452)
T4 construct: range 1-452
T4 sequence (Q02763 other isoform, or with tags, fused parts or gaps limits assumed, form in doubt): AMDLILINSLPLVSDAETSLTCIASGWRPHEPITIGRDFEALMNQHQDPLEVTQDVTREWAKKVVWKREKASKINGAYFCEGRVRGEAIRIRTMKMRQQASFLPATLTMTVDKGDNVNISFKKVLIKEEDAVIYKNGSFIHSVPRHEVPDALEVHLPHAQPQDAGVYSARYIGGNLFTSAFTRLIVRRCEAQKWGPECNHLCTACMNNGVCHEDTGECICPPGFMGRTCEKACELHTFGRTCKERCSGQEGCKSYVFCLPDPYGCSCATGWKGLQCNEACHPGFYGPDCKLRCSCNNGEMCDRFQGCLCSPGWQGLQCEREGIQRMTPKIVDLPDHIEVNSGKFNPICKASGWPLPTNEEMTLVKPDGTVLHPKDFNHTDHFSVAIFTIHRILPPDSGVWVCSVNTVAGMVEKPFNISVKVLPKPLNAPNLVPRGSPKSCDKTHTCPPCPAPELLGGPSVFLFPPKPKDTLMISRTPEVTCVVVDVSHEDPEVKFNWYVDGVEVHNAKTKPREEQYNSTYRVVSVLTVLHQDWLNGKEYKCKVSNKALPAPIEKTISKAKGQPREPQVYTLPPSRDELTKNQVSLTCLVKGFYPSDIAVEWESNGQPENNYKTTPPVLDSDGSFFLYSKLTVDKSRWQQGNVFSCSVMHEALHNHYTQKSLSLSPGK
Procedure: as §1, §2

[5] = target: T5, Human Tie2 (1-452)g1-Fc (human, UniProt Q02763 23-452)
T5 construct: range 1-452
Procedure: as §1, §2

[6] = target: T6, Human Tie2 (1-452)g2-Fc (human, UniProt Q02763 23-452)
T6 construct: range 1-452
T6 sequence (Q02763 other isoform, or with tags, fused parts or gaps limits assumed, form in doubt): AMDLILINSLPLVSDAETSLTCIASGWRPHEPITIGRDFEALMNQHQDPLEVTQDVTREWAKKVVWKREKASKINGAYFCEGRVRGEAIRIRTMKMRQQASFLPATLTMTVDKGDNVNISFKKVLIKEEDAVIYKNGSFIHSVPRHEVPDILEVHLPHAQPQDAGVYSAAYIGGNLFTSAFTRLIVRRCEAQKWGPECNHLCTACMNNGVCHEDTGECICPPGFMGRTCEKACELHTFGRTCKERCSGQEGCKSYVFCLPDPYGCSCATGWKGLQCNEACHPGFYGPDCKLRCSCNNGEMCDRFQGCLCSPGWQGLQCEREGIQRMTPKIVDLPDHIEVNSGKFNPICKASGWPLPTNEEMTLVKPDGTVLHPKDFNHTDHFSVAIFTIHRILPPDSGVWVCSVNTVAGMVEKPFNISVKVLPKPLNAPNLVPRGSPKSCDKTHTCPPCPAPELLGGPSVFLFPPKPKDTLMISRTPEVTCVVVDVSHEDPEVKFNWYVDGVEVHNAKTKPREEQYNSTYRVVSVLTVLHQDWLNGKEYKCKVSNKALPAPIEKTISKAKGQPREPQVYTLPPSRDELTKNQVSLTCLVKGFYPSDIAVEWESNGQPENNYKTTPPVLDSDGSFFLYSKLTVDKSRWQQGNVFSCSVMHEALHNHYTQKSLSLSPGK
Procedure: as §1, §2

[7] = target: T7, Human Tie2 (1-452)g3-Fc (human, UniProt Q02763 23-452)
T7 construct: range 1-452
T7 sequence (Q02763 other isoform, or with tags, fused parts or gaps limits assumed, form in doubt): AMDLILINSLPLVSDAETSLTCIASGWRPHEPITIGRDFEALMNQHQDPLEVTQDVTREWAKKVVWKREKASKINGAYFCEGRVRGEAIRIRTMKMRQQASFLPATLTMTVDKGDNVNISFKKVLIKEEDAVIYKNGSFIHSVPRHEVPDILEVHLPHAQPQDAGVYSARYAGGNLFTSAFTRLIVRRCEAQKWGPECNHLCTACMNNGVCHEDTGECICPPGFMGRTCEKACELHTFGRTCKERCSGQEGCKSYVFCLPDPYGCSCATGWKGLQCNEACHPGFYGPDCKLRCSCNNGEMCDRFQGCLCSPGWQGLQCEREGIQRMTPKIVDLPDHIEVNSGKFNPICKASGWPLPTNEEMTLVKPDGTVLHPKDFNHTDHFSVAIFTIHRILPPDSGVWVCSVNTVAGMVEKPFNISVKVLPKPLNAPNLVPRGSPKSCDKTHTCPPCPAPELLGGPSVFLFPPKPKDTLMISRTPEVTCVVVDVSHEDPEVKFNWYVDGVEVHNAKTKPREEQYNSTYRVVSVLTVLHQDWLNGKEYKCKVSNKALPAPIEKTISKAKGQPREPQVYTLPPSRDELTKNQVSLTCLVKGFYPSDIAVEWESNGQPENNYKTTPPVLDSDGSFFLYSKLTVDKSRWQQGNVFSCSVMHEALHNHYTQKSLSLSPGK
Procedure: as §1, §2

[8] = target: T8, Human Tie2 (1-452)g4-Fc (human, UniProt Q02763 23-452)
T8 construct: range 1-452
T8 sequence (Q02763 other isoform, or with tags, fused parts or gaps limits assumed, form in doubt): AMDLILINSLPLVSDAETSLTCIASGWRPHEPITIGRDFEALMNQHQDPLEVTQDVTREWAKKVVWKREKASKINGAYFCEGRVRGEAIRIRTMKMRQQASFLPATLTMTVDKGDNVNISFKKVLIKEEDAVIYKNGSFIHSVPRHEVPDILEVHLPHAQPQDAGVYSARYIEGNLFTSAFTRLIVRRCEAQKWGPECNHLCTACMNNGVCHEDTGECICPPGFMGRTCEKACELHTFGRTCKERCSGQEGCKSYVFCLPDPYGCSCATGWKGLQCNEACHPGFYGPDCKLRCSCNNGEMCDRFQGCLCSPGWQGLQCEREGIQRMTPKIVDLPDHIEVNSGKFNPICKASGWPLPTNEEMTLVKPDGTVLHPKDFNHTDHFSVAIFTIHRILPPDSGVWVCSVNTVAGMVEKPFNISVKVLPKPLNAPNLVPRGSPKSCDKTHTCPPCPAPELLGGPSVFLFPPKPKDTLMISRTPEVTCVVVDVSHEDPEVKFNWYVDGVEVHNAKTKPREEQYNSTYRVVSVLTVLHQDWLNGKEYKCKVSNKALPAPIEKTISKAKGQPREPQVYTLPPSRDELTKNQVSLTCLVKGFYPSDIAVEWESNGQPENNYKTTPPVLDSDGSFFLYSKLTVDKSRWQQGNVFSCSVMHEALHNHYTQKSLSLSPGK
Procedure: as §1, §2

[9] = target: T9, Human Tie2 (1-452)g5-Fc (human, UniProt Q02763 23-452)
T9 construct: range 1-452
Procedure: as §1, §2

[10] = target: T10, Human Tie2 (1-452)g6-Fc (human, UniProt Q02763 23-452)
T10 construct: range 1-452
Procedure: as §1, §2

[11] = target: T11, Human Tie2 (1-452)m3-Fc (human, UniProt Q02763 23-452)
T11 construct: range 1-452
Procedure: as §1, §2

[12] = target: T12, Human Tie2 (1-452)y1-Fc (human, UniProt Q02763 23-452)
T12 construct: range 1-452
Procedure: as §1, §2

[13] = target: T13, Human Tie2 (1-452)A2-Fc (human, UniProt Q02763 23-452)
T13 construct: range 1-452
Procedure: as §1, §2

[14] = target: T14, Human Tie2 (1-452)A3-Fc (human, UniProt Q02763 23-452)
T14 construct: range 1-452
T14 sequence (Q02763 other isoform, or with tags, fused parts or gaps limits assumed, form in doubt): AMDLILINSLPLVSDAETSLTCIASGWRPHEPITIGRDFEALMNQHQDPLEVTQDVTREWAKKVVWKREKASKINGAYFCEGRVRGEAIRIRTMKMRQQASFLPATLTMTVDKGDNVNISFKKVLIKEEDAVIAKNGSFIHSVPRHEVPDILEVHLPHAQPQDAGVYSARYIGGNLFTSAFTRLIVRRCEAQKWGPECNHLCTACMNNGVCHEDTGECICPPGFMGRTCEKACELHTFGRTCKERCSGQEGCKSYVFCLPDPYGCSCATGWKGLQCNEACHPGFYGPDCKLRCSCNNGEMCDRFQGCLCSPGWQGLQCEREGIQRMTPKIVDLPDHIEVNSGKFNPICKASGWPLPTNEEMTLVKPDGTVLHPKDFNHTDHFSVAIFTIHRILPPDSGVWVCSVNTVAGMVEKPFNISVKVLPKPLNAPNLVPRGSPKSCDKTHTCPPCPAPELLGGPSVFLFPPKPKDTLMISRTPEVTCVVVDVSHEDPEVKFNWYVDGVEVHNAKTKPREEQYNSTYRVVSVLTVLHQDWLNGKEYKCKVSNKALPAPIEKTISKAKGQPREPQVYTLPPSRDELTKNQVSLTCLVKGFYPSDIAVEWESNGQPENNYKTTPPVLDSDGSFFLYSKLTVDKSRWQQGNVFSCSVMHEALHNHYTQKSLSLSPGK
Procedure: as §1, §2

[15] = target: T15, Human Tie2 (1-452)A4-Fc (human, UniProt Q02763 23-452)
T15 construct: range 1-452
Procedure: as §1, §2

[16] = target: T16, human Tie2 (1-452)-Fc chimeric protein (human, UniProt Q02763 23-452)
T16 construct: range 1-452; The stated range 1-452 begins at residue 1 of the precursor
Procedure: as §1, §2

[17] = target: T17, Human Tie2 (1-452)r1-Fc (human, UniProt Q02763 23-452)
T17 construct: range 1-452
Procedure: as §1, §2

T1 sequence (Q02763 other isoform, or with tags, fused parts or gaps limits assumed, form in doubt): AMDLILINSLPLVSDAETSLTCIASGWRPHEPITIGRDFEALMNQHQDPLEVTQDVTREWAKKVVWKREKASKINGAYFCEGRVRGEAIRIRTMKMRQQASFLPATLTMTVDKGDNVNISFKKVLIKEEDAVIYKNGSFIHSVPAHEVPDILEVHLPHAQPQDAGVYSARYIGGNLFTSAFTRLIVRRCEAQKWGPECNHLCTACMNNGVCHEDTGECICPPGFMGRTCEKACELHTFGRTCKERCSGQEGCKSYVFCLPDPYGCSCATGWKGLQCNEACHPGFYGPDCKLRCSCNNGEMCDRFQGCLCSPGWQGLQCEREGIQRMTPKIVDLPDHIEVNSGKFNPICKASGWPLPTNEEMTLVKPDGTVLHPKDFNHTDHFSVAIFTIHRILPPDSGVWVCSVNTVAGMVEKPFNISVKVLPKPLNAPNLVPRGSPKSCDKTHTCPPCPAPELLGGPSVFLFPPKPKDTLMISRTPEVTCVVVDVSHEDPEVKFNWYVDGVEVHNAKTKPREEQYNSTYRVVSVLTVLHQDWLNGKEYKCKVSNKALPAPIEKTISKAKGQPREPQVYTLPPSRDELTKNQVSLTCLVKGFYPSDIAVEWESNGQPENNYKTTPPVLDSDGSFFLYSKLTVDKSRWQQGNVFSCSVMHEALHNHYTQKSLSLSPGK

Binding ratio [1]: 0.34 | Relative value (%) of binding ratio (human Tie2 (1-452)-Fc chimeric protein = 100%) [1]: 119% | Binding ratio [2]: 0.33 | Relative value (%) of binding ratio (human Tie2 (1-452)-Fc chimeric protein = 100%) [2]: 113% | Binding ratio [3]: 0.29 | Relative value (%) of binding ratio (human Tie2 (1-452)-Fc chimeric protein = 100%) [3]: 99% | Binding ratio [4]: 0.3 | Relative value (%) of binding ratio (human Tie2 (1-452)-Fc chimeric protein = 100%) [4]: 106% | Binding ratio [5]: 0 | Relative value (%) of binding ratio (human Tie2 (1-452)-Fc chimeric protein = 100%) [5]: 0% | Binding ratio [6]: 0.03 | Relative value (%) of binding ratio (human Tie2 (1-452)-Fc chimeric protein = 100%) [6]: 9% | Binding ratio [7]: 0.06 | Relative value (%) of binding ratio (human Tie2 (1-452)-Fc chimeric protein = 100%) [7]: 23% | Binding ratio [8]: 0.02 | Relative value (%) of binding ratio (human Tie2 (1-452)-Fc chimeric protein = 100%) [8]: 7% | Binding ratio [9]: 0.03 | Relative value (%) of binding ratio (human Tie2 (1-452)-Fc chimeric protein = 100%) [9]: 9% | Binding ratio [10]: 0.38 | Relative value (%) of binding ratio (human Tie2 (1-452)-Fc chimeric protein = 100%) [10]: 131% | Binding ratio [11]: 0.04 | Relative value (%) of binding ratio (human Tie2 (1-452)-Fc chimeric protein = 100%) [11]: 12% | Binding ratio [12]: 0.25 | Relative value (%) of binding ratio (human Tie2 (1-452)-Fc chimeric protein = 100%) [12]: 87% | Binding ratio [13]: 0.08 | Relative value (%) of binding ratio (human Tie2 (1-452)-Fc chimeric protein = 100%) [13]: 29% | Binding ratio [14]: 0.17 | Relative value (%) of binding ratio (human Tie2 (1-452)-Fc chimeric protein = 100%) [14]: 59% | Binding ratio [15]: 0.13 | Relative value (%) of binding ratio (human Tie2 (1-452)-Fc chimeric protein = 100%) [15]: 44% | Binding ratio [16]: 0.29 | Relative value (%) of binding ratio (human Tie2 (1-452)-Fc chimeric protein = 100%) [16]: 100% | Binding ratio [17]: 0.29 | Relative value (%) of binding ratio (human Tie2 (1-452)-Fc chimeric protein = 100%) [17]: 102%
B1: fully human 2-16A2-Fab (Fab, V domains shown)
VH: EVQLVESGGGLVQPGGSLRLSCAASGFTFDDYAMHWVRQAPGKGLEWVAGISWNSGSIVYADSVKGRFTISRDNSKNTLYLQMNSLRAEDTAVYYCAKDIREQLVEDAFDIWGQGTLVTVSS
VL: DIQMTQSPSSLSASVGDRVTITCRSSQSLLHSHRYNYLDWYQQKPGKAPKLLIYLGSNRASGVPSRFSGSGSGTDFTLTISSVQPEDFATYYCMQTLQTPLTFGQGTKVEIKR
notes: also called Fab of the fully human 2-16A2
